Data on six sequences can be found in the supplement of paper PMC5998384.

The test system of data set [1] is HeLa Kyoto. The experiment in a line: thermal stability score vs G1/S (z-score of summed log2 fold changes over temperatures); higher = more thermally stable than in G1/S.
Data set [2] concerns HeLa Kyoto. The data set is described as follows: solubility change mitosis vs G1/S (difference of NP-40 vs SDS log2 ratios) (log2 ratio difference); higher = more soluble in mitosis.
Data set [3] has as its system HeLa Kyoto. The experiment in a line: solubility in G1/S (NP-40 vs SDS abundance) (log2 ratio); higher = more soluble. The settings on record: cell cycle stage: G1/S.
Data set [4] has as its system HeLa Kyoto. The data set is described as follows: melting temperature (median over replicates), in situ; higher = more thermally stable.
Where [5] appears, read: cell cycle stage: early G1 (4.5 h after nocodazole release).
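Wherever melting temperature (median over replicates), in situ is given: HeLa Kyoto cells synchronized by double thymidine or nocodazole block, proteins quantified by TMT10plex mass spectrometry, three independent biological replicates.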
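Wherever solubility change mitosis vs G1/S (difference of NP-40 vs SDS log2 ratios) is given: synchronized HeLa Kyoto cells (double thymidine block for G1/S, nocodazole release for mitosis), protein amounts in NP-40 versus SDS lysates quantified by mass spectrometry, three biological replicates.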
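Wherever solubility in G1/S (NP-40 vs SDS abundance) is given: HeLa Kyoto cells arrested at G1/S by double thymidine block, proteins quantified by TMT10plex mass spectrometry in mild NP-40 versus SDS extracts, three biological replicates.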
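Wherever thermal stability score vs G1/S (z-score of summed log2 fold changes over temperatures) is given: synchronized HeLa Kyoto cells, proteins quantified by TMT10plex mass spectrometry, three biological replicates, mitosis taken 0.5 h after nocodazole release, G1/S directly after double thymidine block.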

As for “MAAVSVYAPPVGGFSFDNCRRNAVLEADFAKRGYKLPKVRKTGTTIAGVVYKDGIVLGADTRATEGMVVADKNCSKIHFISPNIYCCGAGTAADTDMTTQLISSNLELHSLSTGRLPRVVTANRMLKQMLFRYQGYIGAALVLGGVDVTGPHLYSIYPHGSTDKLPYVTMGSGSLAAMAVFEDKFRPDMEEEEAKNLVSEAIAAGIFNDLGSGSNIDLCVISKNKLDFLRPYTVPNKKGTRLGRYRCEKGTTAVLTEKITPLEIEVLEETVQTMDTS [PSMB7]”, the thermal stability score is -1.21 in the data set on HeLa Kyoto [1] (setting [5]) and -2.39 in the data set with HeLa Kyoto [1] (cell cycle stage: mitosis). For the same sequence, the “solubility change mitosis (log2)” value in the data set with HeLa Kyoto [2] is -0.192. Also, in the data set on HeLa Kyoto [3], the “solubility in G1/S (log2)” value was 0.376. Moreover, the melting temperature was 60.7 °C in the data set with HeLa Kyoto [4] (cell cycle stage: G1/S) and 64.5 °C with HeLa Kyoto [4] (cell cycle stage: mitosis).

Take “MIALFNKLLDWFKALFWKEEMELTLVGLQYSGKTTFVNVIASGQFNEDMIPTVGFNMRKITKGNVTIKLWDIGGQPRFRSMWERYCRGVSAIVYMVDAADQEKIEASKNELHNLLDKPQLQGIPVLVLGNKRDLPGALDEKELIEKMNLSAIQDREICCYSISCKEKDNIDITLQWLIQHSKSRRS [ARL8A]”: the thermal stability score in the data set on HeLa Kyoto [1] (setting [5]) is -1.51; in the data set with HeLa Kyoto [1] (cell cycle stage: mitosis), -1.71. The “solubility change mitosis (log2)” value in the data set with HeLa Kyoto [2] was -0.116. For the same sequence, the “solubility in G1/S (log2)” value in the data set with HeLa Kyoto [3] is -0.0955. The values for the melting temperature in the data set on HeLa Kyoto [4] (cell cycle stage: G1/S) and in the data set on HeLa Kyoto [4] (cell cycle stage: mitosis) were 54.3 °C and 54.4 °C, respectively.

For “MSFIDPYQHIIVEHQYSHKFTVVVLRATKVTKGAFGDMLDTPDPYVELFISTTPDSRKRTRHFNNDINPVWNETFEFILDPNQENVLEITLMDANYVMDETLGTATFTVSSMKVGEKKEVPFIFNQVTEMVLEMSLEVCSCPDLRFSMALCDQEKTFRQQRKEHIRESMKKLLGPKNSEGLHSARDVPVVAILGSGGGFRAMVGFSGVMKALYESGILDCATYVAGLSGSTWYMSTLYSHPDFPEKGPEEINEELMKNVSHNPLLLLTPQKVKRYVESLWKKKSSGQPVTFTDIFGMLIGETLIHNRMNTTLSSLKEKVNTAQCPLPLFTCLHVKPDVSELMFADWVEFSPYEIGMAKYGTFMAPDLFGSKFFMGTVVKKYEENPLHFLMGVWGSAFSILFNRVLGVSGSQSRGSTMEEELENITTKHIVSNDSSDSDDESHEPKGTENEDAGSDYQSDNQASWIHRMIMALVSDSALFNTREGRAGKVHNFMLGLNLNTSYPLSPLSDFATQDSFDDDELDAAVADPDEFERIYEPLDVKSKKIHVVDSGLTFNLPYPLILRPQRGVDLIISFDFSARPSDSSPPFKELLLAEKWAKMNKLPFPKIDPYVFDREGLKECYVFKPKNPDMEKDCPTIIHFVLANINFRKYRAPGVPRETEEEKEIADFDIFDDPESPFSTFNFQYPNQAFKRLHDLMHFNTLNNIDVIKEAMVESIEYRRQNPSRCSVSLSNVEARRFFNKEFLSKPKA [PLA2G4A]”, the results for the thermal stability score in the data set with HeLa Kyoto [1] (setting [5]) and with HeLa Kyoto [1] (cell cycle stage: mitosis) were 1.55 and 0.83, respectively. Moreover, the “solubility change mitosis (log2)” value in the data set with HeLa Kyoto [2] is -0.0979. Further, in the data set with HeLa Kyoto [3], the “solubility in G1/S (log2)” value was -0.0367. The figures for the melting temperature in the data set on HeLa Kyoto [4] (cell cycle stage: G1/S) and in the data set with HeLa Kyoto [4] (cell cycle stage: mitosis) were 50.3 °C and 50.1 °C, respectively.

Turning to “MMAAGAALALALWLLMPPVEVGGAGPPPIQDGEFTFLLPAGRKQCFYQSAPANASLETEYQVIGGAGLDVDFTLESPQGVLLVSESRKADGVHTVEPTEAGDYKLCFDNSFSTISEKLVFFELIFDSLQDDEEVEGWAEAVEPEEMLDVKMEDIKESIETMRTRLERSIQMLTLLRAFEARDRNLQEGNLERVNFWSAVNVAVLLLVAVLQVCTLKRFFQDKRPVPT [TMED1]”, the values for the thermal stability score with HeLa Kyoto [1] (setting [5]) and in the data set with HeLa Kyoto [1] (cell cycle stage: mitosis) were 2.89 and 2.9, respectively. The “solubility change mitosis (log2)” value with HeLa Kyoto [2] was -0.147. Further, the “solubility in G1/S (log2)” value with HeLa Kyoto [3] came out at 0.437. Besides, the melting temperature is 55.1 °C in the data set on HeLa Kyoto [4] (cell cycle stage: G1/S) and 57.2 °C in the data set with HeLa Kyoto [4] (cell cycle stage: mitosis).

As to “MDFPCLWLGLLLPLVAALDFNYHRQEGMEAFLKTVAQNYSSVTHLHSIGKSVKGRNLWVLVVGRFPKEHRIGIPEFKYVANMHGDETVGRELLLHLIDYLVTSDGKDPEITNLINSTRIHIMPSMNPDGFEAVKKPDCYYSIGRENYNQYDLNRNFPDAFEYNNVSRQPETVAVMKWLKTETFVLSANLHGGALVASYPFDNGVQATGALYSRSLTPDDDVFQYLAHTYASRNPNMKKGDECKNKMNFPNGVTNGYSWYPLQGGMQDYNYIWAQCFEITLELSCCKYPREEKLPSFWNNNKASLIEYIKQVHLGVKGQVFDQNGNPLPNVIVEVQDRKHICPYRTNKYGEYYLLLLPGSYIINVTVPGHDPHITKVIIPEKSQNFSALKKDILLPFQGQLDSIPVSNPSCPMIPLYRNLPDHSAATKPSLFLFLVSLLHIFFK”, the values for the thermal stability score with HeLa Kyoto [1] (setting [5]) and in the data set with HeLa Kyoto [1] (cell cycle stage: mitosis) were 2.04 and 3.27, respectively. Also, the “solubility change mitosis (log2)” value in the data set on HeLa Kyoto [2] was -0.0348. For the same sequence, the “solubility in G1/S (log2)” value with HeLa Kyoto [3] was determined as 0.0898. The melting temperature was 57.6 °C in the data set on HeLa Kyoto [4] (cell cycle stage: G1/S) and 56.3 °C in the data set on HeLa Kyoto [4] (cell cycle stage: mitosis).

In the case of “MQGARAPRDQGRSPGRMSALGRSSVILLTYVLAATELTCLFMQFSIVPYLSRKLGLDSIAFGYLQTTFGVLQLLGGPVFGRFADQRGARAALTLSFLAALALYLLLAAASSPALPGVYLLFASRLPGALMHTLPAAQMVITDLSAPEERPAALGRLGLCFGVGVILGSLLGGTLVSAYGIQCPAILAALATLLGAVLSFTCIPASTKGAKTDAQAPLPGGPRASVFDLKAIASLLRLPDVPRIFLVKVASNCPTGLFMVMFSIISMDFFQLEAAQAGYLMSFFGLLQMVTQGLVIGQLSSHFSEEVLLRASVLVFIVVGLAMAWMSSVFHFCLLVPGLVFSLCTLNVVTDSMLIKAVSTSDTGTMLGLCASVQPLLRTLGPTVGGLLYRSFGVPVFGHVQVAINTLVLLVLWRKPMPQRKDKVR [SLC22A18]”, the thermal stability score in the data set on HeLa Kyoto [1] (setting [5]) is 0.106; with HeLa Kyoto [1] (cell cycle stage: mitosis) it was -0.446. For the same sequence, in the data set on HeLa Kyoto [2], the “solubility change mitosis (log2)” value is -0.181. For the same sequence, in the data set with HeLa Kyoto [3], the “solubility in G1/S (log2)” value is -0.019. In the data set with HeLa Kyoto [4] (cell cycle stage: G1/S), this sequence had a melting temperature of 54.2 °C.
